In paper PMC8956665, “Structural and molecular rationale for the diversification of resistance mediated by the Antibiotic_NAT family” (Communications Biology, 2022) one finds stoichiometry N data, which are given here for one substance.

As a reminder, the stoichiometry N is a count of units in the complex or per binding partner.

The target in this assay is meta-AAC0038^H168A (not stated (soil metagenome)). Kind of assay: crystal structure.

In the case of meta-AAC0038^H168A (enzyme), the stoichiometry N amounted to 2.
